In the supplement of paper PMC10126150:
± gives the standard deviation of the averaged measurements.

System: ATP
Test: switch fluorescence ratio, 500 uM ATP over buffer (Cy3 cluster intensity, sum of 5 cycles each) (fold (ratio)); higher = stronger signal-on switching upon ATP binding; sequences stand for … in TCGTCGGCAGCGTCAGATGTGTATAAGAGACAGTTTTTTTTTTTTTTTTTTTTTTTTT…TC
Conditions: aptamer strand: ATP DNA aptamer (quencher-CACCTGGGGGAGTATTGCGGAGGAAGG + anchor), 100 nM annealed; ATP concentration: 500 uM
Procedure, shortened: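 For every switch-domain sequence, the fluorescence ratio is the mean of per-cluster values, each being summed target-cycle Cy3 intensity over summed buffer-cycle Cy3 intensity. Clusters outside 100-1000 RFU were excluded. On a modified Illumina MiSeq flow-cell, the Cy3-labelled switching-strand clusters were annealed to 100 nM quencher-labelled ATP aptamer, imaged in selection buffer and then after 15 min with 500 uM ATP at 22 °C. Five such cycles were run, with NaOH stripping and re-annealing between them.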
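Note: ATP exposure 15 min at 22 °C before imaging.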

Sequence	switch fluorescence ratio
CAAATGTTGG	0.983 ± 0.026
CAAATTAGGA	0.9764 ± 0.0073
CAAATTCTGT	1.009 ± 0.009
CAAATTGCTT	1.01 ± 0.038
CAAATTTGGC	0.986 ± 0.027
CAACAACGCG	0.992 ± 0.02
CAACAGTTTT	1 ± 0.012
CAACCGTTTC	1.27 ± 0.028
CAACGGGGCG	0.999 ± 0.028
CAACGGGTTA	0.998 ± 0.0077
CAACTACGGC	1.09 ± 0.05
CAACTTTACC	1.16 ± 0.027
CAAGAAAGTG	0.9875 ± 0.0071
CAAGACACGT	0.977 ± 0.032
CAAGAGGGGG	0.978 ± 0.043
CAAGAGTGGG	1.01 ± 0.032
CAAGATCTGT	0.9925 ± 0.0031
CAAGATTGTT	1.02 ± 0.017
CAAGCCAGTT	0.9985 ± 0.0043
CAAGCGTTTC	1.06 ± 0.024
CAAGCTTGGG	1 ± 0.034
CAAGGAATGG	0.995 ± 0.035
CAAGGACGAT	1.004 ± 0.0015
CAAGGCATTC	1.32 ± 0.059
CAAGGGGGG	0.977 ± 0.043

Sequence	switch fluorescence ratio
CAAGGGGTT	1.02 ± 0.068
CAAGGTAAAG	0.992 ± 0.013
CAAGGTCGTA	1 ± 0.029
CAAGTAAGCG	1.003 ± 0.0011
CAAGTACATG	1.2 ± 0.014
CAAGTAGGTC	0.98 ± 0.061
CAAGTGGTTG	0.984 ± 0.025
CAAGTGTACG	1.01 ± 0.042
CAAGTTCTGC	0.97 ± 0.053
CAAGTTGGCG	0.995 ± 0.099
CAAGTTTGC	1.08 ± 0.017
CAATAAGTTT	1.01 ± 0.043
CAATACATAT	1.07 ± 0.023
CAATAGCTAT	1.06 ± 0.022
CAATAGTGTG	0.973 ± 0.017
CAATAGTTGT	0.996 ± 0.029
CAATATATCA	0.999 ± 0.022
CAATATTAGA	1.02 ± 0.07
CAATATTTGC	0.975 ± 0.035
CAATCCATTG	0.994 ± 0.024
CAATCCTTTT	1.01 ± 0.018
CAATCTGATA	0.99 ± 0.016
CAATCTGTTA	0.989 ± 0.027
CAATGAGCCT	1.04 ± 0.013
CAATGAGCTT	0.9907 ± 0.0087

Sequence	switch fluorescence ratio
CAATGAGGAA	1.02 ± 0.018
CAATGATAGG	0.992 ± 0.017
CAATGATCTT	1.02 ± 0.014
CAATGATGCT	0.935 ± 0.018
CAATGATGGG	1.0072 ± 0.00052
CAATGCCGAG	0.9895 ± 0.0045
CAATGGAAGA	0.989 ± 0.014
CAATGGCGTA	1.013 ± 0.00084
CAATGGGCGA	0.993 ± 0.011
CAATGGGCTC	1.016 ± 0.0084
CAATGGGGCT	1.02 ± 0.038
CAATGGTAGT	0.9749 ± 0.0024
CAATGTAAGA	0.989 ± 0.012
CAATTAAACC	1.05 ± 0.028
CAATTACTAG	1.01 ± 0.029
CAATTGGGGG	0.9968 ± 0.0078
CAATTTCTGG	0.973 ± 0.015
CAATTTTGCT	0.98 ± 0.019
CAATTTTTAG	1.01 ± 0.023
CAATTTTTCA	1 ± 0.069
CACAAGGGCA	1.028 ± 0.0061
CACAATATCT	1.124 ± 0.0037
CACACCGGCA	1.093 ± 0.0043
CACACTCGCT	1.01 ± 0.024
CACAGTAAAC	1.25 ± 0.11

Sequence	switch fluorescence ratio
CACATAAAAG	0.987 ± 0.027
CACATCACTT	1.43 ± 0.27
CACCAGGGCA	1.54 ± 0.066
CACCCGTGCT	1.09 ± 0.016
CACCGGAGGG	1.25 ± 0.4
CACCTAAAAT	1.03 ± 0.037
CACCTCATAA	1.06 ± 0.011
CACCTCGGAC	1.139 ± 0.0092
CACCTCTTAC	1.271 ± 0.0029
CACCTGCCCC	1.347 ± 0.011
CACCTTTACA	1.16 ± 0.034
CACGAAAGGA	1.07 ± 0.033
CACGAGCGTT	1.011 ± 0.0049
CACGAGGGAG	0.982 ± 0.022
CACGATTACT	1.281 ± 0.0018
CACGCCTTAT	1.034 ± 0.0043
CACGGAAGGA	1.065 ± 0.0079
CACGGACCTA	1.363 ± 0.012
CACGGGCCCT	1.02 ± 0.017
CACGGGGCTT	1.02 ± 0.021
CACGGGGGAG	1.005 ± 0.0096
CACGGTTTCT	1.09 ± 0.13
CACGTCAACT	1.32 ± 0.06
CACGTCGGTA	1.01 ± 0.015
CACGTGGGAG	1.04 ± 0.023

Sequence	switch fluorescence ratio
CACGTTAGTT	1.06 ± 0.06
CACTAAATGT	1 ± 0.035
CACTAGCGGA	1.05 ± 0.023
CACTAGGGGG	1.05 ± 0.0083
CACTGAGATG	1.01 ± 0.03
CACTGCTTTA	1.02 ± 0.037
CACTGGGATT	1.01 ± 0.018
CACTGTCTGT	0.98 ± 0.028
CACTGTCTT	0.991 ± 0.019
CACTGTGACA	1.083 ± 0.0052
CACTTCCTTA	1.098 ± 0.0081
CACTTCGCCA	2.12 ± 0.17
CACTTCTGGC	1.03 ± 0.011
CACTTGATGT	0.996 ± 0.023
CACTTGGTGG	0.96 ± 0.038
CACTTTGTTT	1.01 ± 0.066
CACTTTTGTA	1.01 ± 0.012
CAGAAAAAAG	1.01 ± 0.028
CAGAAAAGCT	1.07 ± 0.034
CAGAACAAAA	1.03 ± 0.035
CAGAACCAGG	1.24 ± 0.06
CAGAAGACAG	0.995 ± 0.071
CAGAAGGGTG	1.02 ± 0.011
CAGAATTGAG	0.995 ± 0.0026
CAGACGTAGG	1.01 ± 0.056

Sequence	switch fluorescence ratio
CAGAGCCATA	1.05 ± 0.013
CAGAGGAGTT	1.01 ± 0.051
CAGAGGGC	1.04 ± 0.04
CAGAGTAGGT	1.02 ± 0.048
CAGAGTATCG	1 ± 0.021
CAGAGTCGGT	1 ± 0.024
CAGATCTGAA	0.952 ± 0.07
CAGATGCCTC	1.012 ± 0.0086
CAGATTATTT	0.99 ± 0.015
CAGATTTGCT	0.983 ± 0.013
CAGCAAATGG	1.47 ± 0.26
CAGCACAGAT	1.015 ± 0.0019
CAGCATTGGG	0.978 ± 0.038
CAGCCCGATC	1.22 ± 0.032
CAGCCCTTGA	1.024 ± 0.0083
CAGCCGGGGA	1.02 ± 0.019
CAGCGAGGTC	1.05 ± 0.012
CAGCGCGTGC	1.01 ± 0.051
CAGCGGGCGA	1.01 ± 0.032
CAGCGGGGCA	1.017 ± 0.0072
CAGCGGGGGG	1.01 ± 0.034
CAGCGGGGTG	1.11 ± 0.15
CAGCGTCTTT	0.994 ± 0.012
CAGCGTGGGG	1.022 ± 0.0092
CAGCTAAAGT	1.009 ± 0.0017

Sequence	switch fluorescence ratio
CAGCTATGTG	0.973 ± 0.011
CAGCTGGGGT	1.01 ± 0.039
CAGCTTGGA	1.01 ± 0.029
CAGCTTTTCG	0.998 ± 0.046
CAGGACATTA	0.994 ± 0.058
CAGGAGTACA	1.03 ± 0.012
CAGGAGTAGC	1.05 ± 0.018
CAGGAGTTGA	1.01 ± 0.025
CAGGCATGCG	1.01 ± 0.037
CAGGCGTTGC	1.17 ± 0.19
CAGGCTTGG	0.994 ± 0.011
CAGGCTTGTA	1.004 ± 0.0098
CAGGGAAAAC	1.03 ± 0.034
CAGGGAAAAG	0.991 ± 0.032
CAGGGAAGCG	0.991 ± 0.018
CAGGGACAAT	1.04 ± 0.023
CAGGGAGAAT	1.01 ± 0.019
CAGGGAGCTG	1.01 ± 0.027
CAGGGATAGG	1.019 ± 0.0092
CAGGGATGCT	1.02 ± 0.035
CAGGGATGGG	0.961 ± 0.023
CAGGGCAAGC	1.36 ± 0.057
CAGGGCAGGG	0.951 ± 0.028
CAGGGCCATA	1.02 ± 0.0042
CAGGGCGTTT	1.01 ± 0.028

Sequence	switch fluorescence ratio
CAGGGCTCCC	1.01 ± 0.02
CAGGGGAAGC	0.999 ± 0.011
CAGGGGAAGG	1.04 ± 0.053
CAGGGGAGAG	0.999 ± 0.027
CAGGGGATAT	0.993 ± 0.046
CAGGGGATTG	1.11 ± 0.14
CAGGGGCCAA	0.979 ± 0.017
CAGGGGCGGC	0.923 ± 0.064
CAGGGGCTTC	1.02 ± 0.018
CAGGGGGGAA	1.024 ± 0.0064
CAGGGGGGCT	1.04 ± 0.057
CAGGGGGGTG	1.01 ± 0.051
CAGGGGGTAA	1.01 ± 0.069
CAGGGGGTTG	0.9866 ± 0.0018
CAGGGGTCGT	1.03 ± 0.038
CAGGGGTTAG	0.9927 ± 0.0026
CAGGGGTTAT	1.01 ± 0.015
CAGGGTATGA	1.007 ± 0.0046
CAGGGTCGGC	0.993 ± 0.035
CAGGGTGATA	1.06 ± 0.071
CAGGGTGGGA	1.02 ± 0.044
CAGGGTTATT	0.995 ± 0.02
CAGGGTTGTT	0.992 ± 0.026
CAGGTAAATT	0.975 ± 0.03
CAGGTAATAG	1.17 ± 0.028
